Reference: patent publication EP2295560A1, “Directed evolution of arginine deiminase for increased activity at physiological pH” (priority 2009, dated 2011)

System: N=C(N)NCCC[C@H](N)C(=O)O
Test: Determination of kcat and Km (citrulline colorimetric assay, purified enzyme)
Format: biochemical, Pseudomonas plecoglossicida CGMCC2039
Settings: 0.5 M phosphate buffer, 0.2 mM to 10 mM of arginine
Procedure: The kcat and Km values were determined from initial velocity data measured as a function of substrate concentration. Enzyme reaction was carried out at 37°C in a water bath. After 10 min preincubation at 37"C, the enzyme reaction was initiated by addition of purified enzyme (50 µl, 0.2-0.5 µM) to the substrate solution (200 µl, 0.2 mM to 10 mM of arginine, 0.5 M phosphate buffer, pH 7.4) in deep well plates. The reaction mixture was incubated (37°C) and every two minutes reaction mixture (30 µl) of each well was transferred to acid-ferric solution (30 µl) to stop the enzyme reaction. The color development was subsequently performed in 96-well PCR plate. Ferric-acid solution (90 µl) and DAM-TSC solution (15 µl) were added to each well. The 96-well PCR plate was then incubated (70°C, 30 min) in thermal cycler (Eppendorf Mastercyler gradient) for color development, followed by incubation in ice water to stop color development. Absorbance was measured at 530 nm using a microtiter plate reader (SPECTROstar Omega, BMG LABTECH, Offenburg, Germany). The initial velocity data obtained were fitted to the equation v = Vmax[S]/([S] + Km) (where v is the initial velocity, Vmax the maximum velocity, [S] the substrate concentration, and Km the Michaelis constant) using GraphPad Prism software (GraphPad software, San Diego, CA, USA). The kcat was calculated from the ratio of Vmax, and enzyme concentration.
For kinetic characterization of ADI variants the citrulline production was maintained between 0.2-0.8 mM. […] Figure 4 summarizes the kcat and Km values of wild type PpADI, identified variants M1 […] and M2 (K5T D44E H404R) which were expressed in shaking flasks cultures and purified using a two step procedure (anion exchange follows by gel filtration). Both variants M1 and M2 show an increase in kcat and Km for citrulline production at pH 7.4.

Substance: Pseudomonas plecoglossicida arginine deiminase (PpADI) variant M1 (H404R) (Pseudomonas plecoglossicida; H404R)
- Km (other: M1, pH 7.4, 37°C): 1200 µM

Substance: Pseudomonas plecoglossicida arginine deiminase (PpADI) variant M2 (K5T D44E H404R) (Pseudomonas plecoglossicida; D44E/H404R/K5T)
- Km (other: M2, pH 7.4, 37°C): 2500 µM

Substance: Pseudomonas plecoglossicida arginine deiminase (PpADI), wild type, SEQ ID No. 1 (Pseudomonas plecoglossicida)
- Km (other: wild type PpADI, pH 7.4, 37°C): 700 µM
